Data as given in the Immune Epitope Database (IEDB).

Columns and labels:
Test in all cases: IEDB peptide-MHC binding, purified MHC/competitive/radioactivity; filed as Kd, often an IC50 or EC50 that approximates it; ≥ and ≤ were set here for values at or beyond the usual limits of such assays
HLA-A*33:01 = molecular target: HLA-A*33:01
HLA-A*68:01 = molecular target: HLA-A*68:01
HLA-A*31:01 = molecular target: HLA-A*31:01
HLA-A*11:01 = molecular target: HLA-A*11:01
HLA-A*03:01 = molecular target: HLA-A*03:01
HLA-A*02:03 = details: source organism: Dengue virus 1 Brazil/97-11/1997
[1] = source organism: Mammarenavirus lassaense
[2] = source organism: Vaccinia virus WR
[3] = source organism: SARS coronavirus Tor2
[4] = source organism: Dengue virus 2 Peru/IQT2913/1996
[5] = source organism: Lymphocytic choriomeningitis virus (strain Armstrong)
[6] = source organism: Mammarenavirus tacaribeense

| Sequence | Kd (HLA-A*33:01; [2]) | Kd (HLA-A*68:01; [2]) | Kd (HLA-A*31:01; [2]) | Kd (HLA-A*11:01; [2]) | Kd (HLA-A*03:01; [2]) | other results |
| --- | --- | --- | --- | --- | --- | --- |
| SHLGPQFCK |  |  |  |  |  | Kd (HLA-A*33:01; [1]): ≥ 28300 nM; Kd (HLA-A*68:01; [1]): 6220 nM; Kd (HLA-A*31:01; [1]): ≥ 24200 nM; Kd (HLA-A*11:01; [1]): 347 nM; Kd (HLA-A*03:01; [1]): 699 nM |
| SLTILDDNLY | 15000 nM | 5990 nM | ≥ 47000 nM | 3070 nM | 491 nM |  |
| SLTSLLKTHR |  |  |  |  |  | Kd (HLA-A*33:01; [3]): 804 nM; Kd (HLA-A*68:01; [3]): 698 nM; Kd (HLA-A*31:01; [3]): 105 nM; Kd (HLA-A*11:01; [3]): 1230 nM; Kd (HLA-A*03:01; [3]): 1450 nM |
| SLTVLFDGR |  |  |  |  |  | Kd (HLA-A*33:01; [3]): 2520 nM; Kd (HLA-A*68:01; [3]): 1340 nM; Kd (HLA-A*31:01; [3]): 350 nM; Kd (HLA-A*11:01; [3]): 7530 nM; Kd (HLA-A*03:01; [3]): 4810 nM |
| SMTCIAVGMV |  |  |  |  |  | Kd (HLA-A*02:03): 21.5 nM |
| SSLRREHIK | ≥ 37100 nM | 14000 nM | 89.7 nM | 270 nM | 1070 nM |  |
| SSLVKNVNK | ≥ 77700 nM | 4400 nM | 1250 nM | 27.1 nM | 432 nM |  |
| SSMTIREFPR | 17.3 nM | 0.479 nM | 0.996 nM | 5.47 nM | 9970 nM |  |
| STGESSILR | 4730 nM | 196 nM | 1340 nM | 928 nM | 310 nM |  |
| SVFYLYLTFY |  |  |  |  |  | Kd (HLA-A*33:01; [3]): 6010 nM; Kd (HLA-A*68:01; [3]): 99.4 nM; Kd (HLA-A*31:01; [3]): 2860 nM; Kd (HLA-A*11:01; [3]): 196 nM; Kd (HLA-A*03:01; [3]): 1790 nM |
| SVKYYGRSTK | 13500 nM | 822 nM | 1340 nM | 571 nM | 97.6 nM |  |
| TCQGSDDIK |  |  |  |  |  | Kd (HLA-A*33:01; [1]): 2840 nM; Kd (HLA-A*68:01; [1]): 7390 nM; Kd (HLA-A*31:01; [1]): 5090 nM; Kd (HLA-A*11:01; [1]): 16500 nM; Kd (HLA-A*03:01; [1]): ≥ 78000 nM |
| TFFSTFKCY |  |  |  |  |  | Kd (HLA-A*33:01; [3]): 1150 nM; Kd (HLA-A*68:01; [3]): 1070 nM; Kd (HLA-A*31:01; [3]): 797 nM; Kd (HLA-A*11:01; [3]): 4350 nM; Kd (HLA-A*03:01; [3]): 5800 nM |
| TLIAMDLGEL |  |  |  |  |  | Kd (HLA-A*02:03): 12.6 nM |
| TLITLILSNK | 8500 nM | 3.73 nM | 570 nM | 3.41 nM | 1.61 nM |  |
| TTFITPMLR |  |  |  |  |  | Kd (HLA-A*33:01; [4]): 11.7 nM; Kd (HLA-A*68:01; [4]): 6.76 nM; Kd (HLA-A*31:01; [4]): 27.1 nM; Kd (HLA-A*11:01; [4]): 84.4 nM; Kd (HLA-A*03:01; [4]): 13.2 nM |
| TVNICIFYDR | 72.8 nM | 27.7 nM | 12.3 nM | 151 nM | 414 nM |  |
| VALSSLVSK | ≥ 39800 nM | 1070 nM | 2040 nM | 15.1 nM | 283 nM |  |
| VALYRRIQR | 12.8 nM | 256 nM | 2.27 nM | 5240 nM | 16100 nM |  |
| VCLALTNSMK |  |  |  |  |  | Kd (HLA-A*33:01; [5]): ≥ 66800 nM; Kd (HLA-A*68:01; [5]): 19300 nM; Kd (HLA-A*31:01; [5]): 4560 nM; Kd (HLA-A*11:01; [5]): 634 nM; Kd (HLA-A*03:01; [5]): 42.4 nM |
| VCPLGLLLK |  |  |  |  |  | Kd (HLA-A*33:01; [6]): ≥ 77700 nM; Kd (HLA-A*68:01; [6]): ≥ 77600 nM; Kd (HLA-A*31:01; [6]): ≥ 26500 nM; Kd (HLA-A*11:01; [6]): 2420 nM; Kd (HLA-A*03:01; [6]): 5830 nM |
| VISKIYTLIY | 2240 nM | 1790 nM | 990 nM | 113 nM | 101 nM |  |
| VLTSEEVVLK |  |  |  |  |  | Kd (HLA-A*33:01; [3]): ≥ 70000 nM; Kd (HLA-A*68:01; [3]): 2100 nM; Kd (HLA-A*31:01; [3]): ≥ 70000 nM; Kd (HLA-A*11:01; [3]): 966 nM; Kd (HLA-A*03:01; [3]): 7470 nM |
| VSVSDFRDY | 11900 nM | ≥ 77700 nM | ≥ 77900 nM | 10400 nM | ≥ 78000 nM |  |
| VTCAAYYFMK |  |  |  |  |  | Kd (HLA-A*33:01; [3]): 2620 nM; Kd (HLA-A*68:01; [3]): 49.2 nM; Kd (HLA-A*31:01; [3]): 199 nM; Kd (HLA-A*11:01; [3]): 6.93 nM; Kd (HLA-A*03:01; [3]): 12.7 nM |
| VTLFYCDER | 284 nM | 121 nM | 131 nM | 273 nM | ≥ 43200 nM |  |
| VTRKCPQKK | 12300 nM | 9880 nM | 13.7 nM | 61.5 nM | 0.762 nM |  |
| VVVQIDPEY | ≥ 77700 nM | 110 nM | ≥ 77900 nM | 2340 nM | 141 nM |  |
